Experimental data from patent publication US20200325232A1 (INNATE PHARMA, published 2020).

T1: CD19 (UniProt P15391 20-556, limits assumed)
T1 sequence (looked up): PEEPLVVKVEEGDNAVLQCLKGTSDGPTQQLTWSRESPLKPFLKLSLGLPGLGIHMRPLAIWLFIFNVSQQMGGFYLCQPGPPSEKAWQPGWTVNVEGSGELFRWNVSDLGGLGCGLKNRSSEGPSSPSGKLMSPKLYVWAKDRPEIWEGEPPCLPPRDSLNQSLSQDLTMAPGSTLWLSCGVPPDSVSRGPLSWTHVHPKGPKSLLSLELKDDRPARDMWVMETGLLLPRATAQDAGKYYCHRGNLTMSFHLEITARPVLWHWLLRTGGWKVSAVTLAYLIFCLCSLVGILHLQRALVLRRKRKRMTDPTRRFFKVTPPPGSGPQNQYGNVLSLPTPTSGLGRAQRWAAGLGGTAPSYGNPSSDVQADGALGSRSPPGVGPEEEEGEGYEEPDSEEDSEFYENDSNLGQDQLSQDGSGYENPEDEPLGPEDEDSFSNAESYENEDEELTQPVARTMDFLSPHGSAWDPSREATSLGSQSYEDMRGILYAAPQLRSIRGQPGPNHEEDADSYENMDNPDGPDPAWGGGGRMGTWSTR

B1: CD19-F18-NKp46-1 (bispecific antibody)
chain 1: not shown
chain 2: not shown
chain 3: DIQMTQTTSSLSASLGDRVTISCRASQDISNYLNWYQQKPDGTVKLLIYYTSRLHSGVPSRFSGSGSGTDYSLTINNLEQEDIATYFCQQGNTRPWTFGGGTKLEIKASTKGPSVFPLAPSSKSTSGGTAALGCLVKDYFPEPVTVSWNSGALTSGVHTFPAVLQSSGLYSLSSVVTVPSSSLGTQTYICNVNHKPSNTKVDKRVEPKSCDKTH
B2: CD19-F20-NKp46-1 (bispecific antibody, human IgG1, kappa)
chain 1: not shown
chain 2: not shown
chain 3: B1 chain 3
B3: CD19-F19-NKp46-1 (bispecific antibody, human IgG1, kappa)
chain 1: not shown
chain 2: not shown
chain 3: B1 chain 3
B4: NKp46-3 (antibody, V domains shown)
VH: EVQLQQSGPELVKPGASVKISCKTSGYTFTEYTMHWVKQSHGKSLEWIGGISPNIGGTSYNQKFKGKATLTVDKSSSTAYMELRSLTSEDSAVYYCARRGGSFDYWGQGTTLTVSS
VL: DIVMTQSPATLSVTPGDRVSLSCRASQSISDYLHWYQQKSHESPRLLIKYASQSISGIPSRFSGSGSGSDFTLSINSVEPEDVGVYYCQNGHSFPLTFGAGTKLELK
notes: Mouse hybridoma antibody (Balb/c immunisation); also called anti-NKp46 (NKp46-3)

Columns and labels:
CD19 = target: T1, CD19; assay: cell-based or functional assay
human NKp46 = target: T2, human NKp46 (human, UniProt O76036 22-304); assay: flow cytometry screen of Example 1 on a cell line expressing human NKp46
T2 construct: The screen used a cell line expressing 'the human NKp46 construct' at the cell surface; In the lysis assays NKp46 is on fresh human NK cells; also called huNKp46; NKp46 receptor
Protocol: Primary screen: Supematant (SN) of growing clones were tested in a primary screen by flow cytometry using a cell line expressing the human NKp46 construct at the cell surface.

T2 sequence (O76036 22-304 Q82K limits assumed): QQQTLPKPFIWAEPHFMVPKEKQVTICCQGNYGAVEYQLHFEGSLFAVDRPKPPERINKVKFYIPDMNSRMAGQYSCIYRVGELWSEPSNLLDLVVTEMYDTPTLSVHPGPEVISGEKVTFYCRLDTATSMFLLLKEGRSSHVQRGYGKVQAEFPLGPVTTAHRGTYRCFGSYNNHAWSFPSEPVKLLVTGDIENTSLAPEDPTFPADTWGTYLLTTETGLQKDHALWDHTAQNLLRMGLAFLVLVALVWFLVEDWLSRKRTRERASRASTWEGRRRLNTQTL

Binder	EC50 of Daudi target cell lysis by NK cells (4-h 51Cr-release assay) (CD19) [picomolar]	binding result (human NKp46)
B1	~1	
B2	~1	
B3	~1	
B4		binds
